Series [1] concerns the target T1, PNPOx (pyridoxine-5′-phosphate oxidase; aPNPOx for the apo-form) (Homo sapiens, UniProt Q9NVS9).
T1 construct: gene PNPO; pET28a(+) in Escherichia coli, HisTrap-purified, tag removal not mentioned; homodimer; FMN removed for the apo-form
T1 sequence (Q9NVS9 1-261): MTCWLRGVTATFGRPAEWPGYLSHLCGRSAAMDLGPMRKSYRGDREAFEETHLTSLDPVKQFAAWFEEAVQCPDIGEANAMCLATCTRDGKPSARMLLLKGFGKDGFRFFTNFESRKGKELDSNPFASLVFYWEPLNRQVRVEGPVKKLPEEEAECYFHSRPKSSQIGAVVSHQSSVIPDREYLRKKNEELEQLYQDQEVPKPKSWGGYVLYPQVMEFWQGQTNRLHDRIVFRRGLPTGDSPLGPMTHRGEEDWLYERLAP
As to the kind of experiment: stopped-flow flavin fluorescence quenching. The settings on record: faster of two association processes, 20 mM PIPES pH 7.0, 0.3 mM MgCl2, 25 °C. Format: binding.

The target of series [2] is T2, RFK (riboflavin kinase; hRFK when loaded with FMN:ADP:Mg2+) (Homo sapiens, UniProt Q969G6).
T2 construct: recombinant, purified in apo-form by a previously described procedure
T2 sequence (Q969G6 1-155): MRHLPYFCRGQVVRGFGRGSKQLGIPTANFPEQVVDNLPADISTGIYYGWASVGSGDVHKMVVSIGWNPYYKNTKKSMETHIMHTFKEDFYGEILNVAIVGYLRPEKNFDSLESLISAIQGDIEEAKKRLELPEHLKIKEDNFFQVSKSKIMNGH
As to the kind of experiment: thermal unfolding followed by Trp and FMN fluorescence. Format: binding. As to conditions: FMN bound together with ADP:Mg2+ (hRFK) versus ligand-free RFK; 20 mM PIPES pH 7.0.

Series [3] deals with T1, PNPOx (pyridoxine-5′-phosphate oxidase; aPNPOx for the apo-form). The series is described as above. The class given is binding. As to conditions: holo-form versus apo-form; 20 mM PIPES pH 7.0.
In series [4] the target is T3, RFK (Homo sapiens, UniProt Q969G6).
T3 chain: T2 sequence (Q969G6 1-155)
The series can be described thus: ITC. (In ITC the heat of successive injections is recorded.)

Series [5] has as its target T3, RFK. As to the kind of experiment: stopped-flow fluorescence.
Substrate in the series “purified protein”: Cc1cc2nc3c(=O)[nH]c(=O)nc-3n(C[C@H](O)[C@H](O)[C@H](O)CO)c2cc1C
As to the kind of experiment: purified protein. The settings on record: no aPNPOx, 400 µM ATP, 0.3 mM MgCl2, 20 mM PIPES pH 7.0, 25 °C.

As for `Cc1cc2nc3c(=O)[nH]c(=O)nc-3n(C[C@H](O)[C@H](O)[C@H](O)COP(=O)(O)O)c2cc1C` [FMN], the “k on1 ^FMN” value in series [1] came out at 340000 ± 20000 M⁻¹ s⁻¹. Moreover, the entries for the “increase of Tm” value in series [2] and in series [3] were ~ 32 °C and “Both proteins were considerably less stable in apo-forms regarding their respective holo-forms”, respectively.

B1: PNPOx (protein)
chain: T1 sequence (Q9NVS9 1-261)
modifications: apo-PNPOx homodimer; ligand-free RFK
Broadly, the Kd is a measure of binding affinity in units of concentration. A low value points to tighter binding. In the series with RFK [4], B1 gave a Kd of 14000 nM.

B2: PNPOx (protein)
chain: T1 sequence (Q9NVS9 1-261)
modifications: holo-PNPOx homodimer with FMN; RFK loaded with FMN and ADP:Mg2+; first binding site
As to B2, the Kd in the series with RFK [4] stood at 130 nM. Compared with the last molecule, the Kd is about 110-fold lower.

B3: PNPOx (protein)
chain: T1 sequence (Q9NVS9 1-261)
modifications: apo-PNPOx homodimer; RFK loaded with FMN and ADP:Mg2+
B3: the Kd with RFK [4] is 900 nM; with RFK [5], approximately 1000 nM.

B4: RFK (riboflavin kinase; hRFK when loaded with FMN:ADP:Mg2+) (Homo sapiens) (protein)
chain: T2 sequence (Q969G6 1-155)
The term Km denotes the concentration of substrate that gives half-maximal velocity. Usually kcat stands for the number of substrate molecules converted per active site and unit of time at saturation. One may read the kcat/Km as the turnover number divided by the Michaelis constant. On to B4, for which, in the series “purified protein”, the Km came out at 2.2 ± 0.3 µM, the kcat was found to be 1 s⁻¹ and the kcat/Km turned out to be 450000 M⁻¹ s⁻¹.

Values taken from PMC10086132, “Riboflavin kinase and pyridoxine 5′-phosphate oxidase complex formation envisages transient interactions for FMN cofactor delivery” (Frontiers in Molecular Biosciences, 2023).
